This note sets out measurements from PMC9673926, “Nucleotide binding as an allosteric regulatory mechanism for Akkermansia muciniphila β-N-acetylhexosaminidase Am2136” (Gut Microbes, 2022).

In general, Kd refers to the concentration at which binding is half-saturated. For orientation: Vmax means the top rate of the reaction or transport when substrate is in excess. As a reminder, the Km is the concentration of substrate that gives half-maximal velocity. What is called kcat/Km is the second-order rate constant that governs catalysis at low substrate concentration.

The target of series [1] is T1, Am2136 WT (Akkermansia muciniphila, UniProt B2UPR7).
T1 construct: The coding region (residue Q20-L756) of Am2136 without signal peptide was based on UniProt; 6XHis (N); made in house; host or cells: E. coli BL21 (DE3)
Kind of series: Nucleotide binding affinity by intrinsic fluorescence. The conditions noted are these: Am2136 WT; fluorescence ex 286 nm/em 336 nm. As for the experimental part:
The nucleotide binding ability was determined on Fluorescence Spectrometer Duetta (HORIBA) by measuring the change of peak intensity. The fluorescence was excited at 286 nm and emitted at 336 nm. And the measurement was processed under 400 V voltage with 2.5 nm excitation slit and 5 nm emission slit. […] The sample was incubated at 4°C for 5 min before testing.

Series [2] concerns the target T1, Am2136 WT. Kind of series: Enzyme activity assay (pNP-β-GlcNAc hydrolysis) regulated by nucleotides. The series is classed as biochemical. Conditions: WT; 1 mM nucleotide; substrate pNP-β-GlcNAc; 37°C.
Substrate in series [3]: CC(=O)N[C@H]1[C@H](Oc2ccc([N+](=O)[O-])cc2)O[C@H](CO)[C@@H](O)[C@@H]1O
Kind of series: Release of 4-nitrophenolate from pNP-β-GlcNAc (0.125-4 mM) followed at 405 nm for 5 min with 2 μM enzyme in 25 mM Tris pH 8.0, 150 mM NaCl at 37 °C, no nucleotide. In kind it is biochemical. An excerpt:
All experiments were repeated three times.

Substrate in series [4]: CC(=O)N[C@H]1[C@H](Oc2ccc([N+](=O)[O-])cc2)O[C@H](CO)[C@@H](O)[C@@H]1O
The experiment in a line: purified protein, by the assay type. Conditions: pH 8.0.

Where a chain is given by its changes, count along the chain named. Names and notes keep the numbering of the source.

`Nc1ncnc2c1ncn2[C@@H]1O[C@H](COP(=O)(O)OP(=O)(O)OP(=O)(O)O)[C@@H](O)[C@H]1O` [ATP] gave a Kd at Am2136 WT [1] of 245 ± 5.99 µM. Moreover, the Vmax at Am2136 WT [2] was 442 ± 9 µmol/min.
In the same order, the values of `Nc1ncnc2c1ncn2[C@@H]1O[C@H](COP(=O)(O)OP(=O)(O)O)[C@@H](O)[C@H]1O` [ADP] are 255 ± 4.98 µM and 422 ± 6 µmol/min.
The corresponding values for `Nc1nc2c(ncn2[C@@H]2O[C@H](COP(=O)(O)OP(=O)(O)OP(=O)(O)O)[C@@H](O)[C@H]2O)c(=O)[nH]1` [GTP] are 123 ± 3.76 µM and 449 ± 7 µmol/min.
In the same order, the values of `O=c1ccn([C@@H]2O[C@H](COP(=O)(O)OP(=O)(O)OP(=O)(O)O)[C@@H](O)[C@H]2O)c(=O)[nH]1` [UTP] are 199 ± 3.66 µM and 439 ± 7 µmol/min.
On Am2136 WT [1], `Nc1ccn([C@@H]2O[C@H](COP(=O)(O)OP(=O)(O)OP(=O)(O)O)[C@@H](O)[C@H]2O)c(=O)n1` [CTP] registered a Kd of 167 ± 5.91 µM. Moreover, the Vmax at Am2136 WT [2] was 436 ± 7 µmol/min.
In the same order, the values of `O=c1ccn([C@@H]2O[C@H](COP(=O)(O)OP(=O)(O)O)[C@@H](O)[C@H]2O)c(=O)[nH]1` [UDP] are 179 ± 7.71 µM and 429 ± 9 µmol/min.
The corresponding values for `Nc1ccn([C@@H]2O[C@H](COP(=O)(O)OP(=O)(O)O)[C@@H](O)[C@H]2O)c(=O)n1` [CDP] are 157 ± 3.89 µM and 435 ± 6 µmol/min.

B1: Δ D717-K727 (Akkermansia muciniphila ATCC BAA-835; DEL717-727) (protein)
chain: QDAKQIADSLSIPPVKAGAKQLPMPSVSGAQIKLLGADYEQLVNSKGKIAPVISDTPVNVSFKVTKDGKEAVSKDYEIMLQAPQAAQGNPKPRIIPEILQWKGGQGEYKLGNTVTIACPDKELGKLFAADMEDVLGKKVKLVAPGAKADISLSLLKGGNLGREGYRLQIARDGVRLGAAAPTGLFWGTRTLLQMLRQTPGSVPCGTAVDFPRYQLRGFMLDVARTPYPLSYLKDVIRTMAWYKMNDLHLVINNNYIFHEHYVDNGHDPFKESYAAFRLESKMKGKDGTPLTARDLFYTKKEFADLVSYARKYGVNIVPEFDTPGHALSFTRLRPDLIYKGPMNHEKRRCEMLDAANPETIDLVSKVFDEYMLKDPKLGRPVFADCGVVHVGADEFYGDKEDYRHFANAVLTHALKRGYTPRIWGSLSAKPGKTPVVSKGVQMNLWSTGWMKAWEAVNQGYDVINTNDGALYIVPFAGYYRMDRNHKGLYNNWIPNRIGNETLPSGHPQLLGGTFAVWNDETDIMHTGYAPYDIWGIISGSMDVLSQKLWGTAKAPDTFEQHRELVSSIGNAPRTNPLHKWKDSQPLTVKPSSLPQKLDKPALGPNYRLTMELELTAAPEGKEQVLLAAPEGELLAVMKDGTVGFRRDDSLEFSFGAKLPVGKKVKVEIVGEPEKTSLLLDGEPAGTAVLKNFSDKSKVHRSTFILPLKELGSSFQGKVFHMNVQPL
notes: residues Q20-L756 without signal peptide, N-terminal 6xHis-tag; loop D717-K727 deleted
For B1, in series [3], the Michaelis-Menten constant (Km) was 6.56 ± 0.41 mM, the Vmax was 144 µmol/min and the catalytic efficiency (kcat/Km) amounted to 11000 ± 1000 M⁻¹ s⁻¹.

B2: Am2136 WT (Akkermansia muciniphila ATCC BAA-835) (protein)
chain: QDAKQIADSLSIPPVKAGAKQLPMPSVSGAQIKLLGADYEQLVNSKGKIAPVISDTPVNVSFKVTKDGKEAVSKDYEIMLQAPQAAQGNPKPRIIPEILQWKGGQGEYKLGNTVTIACPDKELGKLFAADMEDVLGKKVKLVAPGAKADISLSLLKGGNLGREGYRLQIARDGVRLGAAAPTGLFWGTRTLLQMLRQTPGSVPCGTAVDFPRYQLRGFMLDVARTPYPLSYLKDVIRTMAWYKMNDLHLVINNNYIFHEHYVDNGHDPFKESYAAFRLESKMKGKDGTPLTARDLFYTKKEFADLVSYARKYGVNIVPEFDTPGHALSFTRLRPDLIYKGPMNHEKRRCEMLDAANPETIDLVSKVFDEYMLKDPKLGRPVFADCGVVHVGADEFYGDKEDYRHFANAVLTHALKRGYTPRIWGSLSAKPGKTPVVSKGVQMNLWSTGWMKAWEAVNQGYDVINTNDGALYIVPFAGYYRMDRNHKGLYNNWIPNRIGNETLPSGHPQLLGGTFAVWNDETDIMHTGYAPYDIWGIISGSMDVLSQKLWGTAKAPDTFEQHRELVSSIGNAPRTNPLHKWKDSQPLTVKPSSLPQKLDKPALGPNYRLTMELELTAAPEGKEQVLLAAPEGELLAVMKDGTVGFRRDDSLEFSFGAKLPVGKKVKVEIVGEPEKTSLLLDGEPAGTAVLKNFSDKSKDFSDKFKHRPKVHRSTFILPLKELGSSFQGKVFHMNVQPL
Consider B2, for which the Km in series [4] is reported as 1.53 ± 0.08 mM; in series [4] (37.0 °C), 1.46 ± 0.05 mM.

B3: Y550A (Akkermansia muciniphila ATCC BAA-835; Y550A) (protein)
chain: B2 chain with Y531A
Consider B3, for which, in series [4] (37.0 °C), the Km was determined as 1.52 ± 0.04 mM.

B4: E649A (Akkermansia muciniphila ATCC BAA-835; E649A) (protein)
chain: B2 chain with E630A
As for B4, the Km in series [4] (37.0 °C) turned out to be 1.45 ± 0.09 mM.

B5: D57A+E59A+Q60A (Akkermansia muciniphila ATCC BAA-835; D57A/E59A/Q60A) (protein)
chain: B2 chain with D38A, E40A, Q41A
notes: residues Q20-L756 without signal peptide, N-terminal 6xHis-tag
As to B5, in series [3], the Km came out at 1.41 ± 0.06 mM, the Vmax stood at 432 µmol/min and the kcat/Km amounted to 153000 ± 3000 M⁻¹ s⁻¹.

B6: Y415A (Akkermansia muciniphila ATCC BAA-835; Y415A) (protein)
chain: B2 chain with Y396A
notes: as for B5
As to B6, in series [3], the Km is listed as 2.32 ± 0.08 mM, the maximal velocity (Vmax) came to 399 µmol/min and the kcat/Km was determined as 86000 ± 1000 M⁻¹ s⁻¹.

B7: T545A+G546A (Akkermansia muciniphila ATCC BAA-835; G546A/T545A) (protein)
chain: B2 chain with T526A, G527A
notes: as for B5
For B7, in series [3], the Km is reported as 3.66 ± 0.69 mM, the Vmax came out at 264 µmol/min and the kcat/Km stood at 36000 ± 5000 M⁻¹ s⁻¹.
